In patent US20060216236A1 (published 2006):

Target: integrin αvβ3 on human tumor cells (ECV304 bladder carcinoma, M21 melanoma) (human, UniProt P06756 31-1048; P05106 27-788)
Assay: cell-based or functional assay

Chain of integrin αvβ3 on human tumor cells (ECV304 bladder carcinoma, M21 melanoma) (P06756 31-1048, chain 1 of 2): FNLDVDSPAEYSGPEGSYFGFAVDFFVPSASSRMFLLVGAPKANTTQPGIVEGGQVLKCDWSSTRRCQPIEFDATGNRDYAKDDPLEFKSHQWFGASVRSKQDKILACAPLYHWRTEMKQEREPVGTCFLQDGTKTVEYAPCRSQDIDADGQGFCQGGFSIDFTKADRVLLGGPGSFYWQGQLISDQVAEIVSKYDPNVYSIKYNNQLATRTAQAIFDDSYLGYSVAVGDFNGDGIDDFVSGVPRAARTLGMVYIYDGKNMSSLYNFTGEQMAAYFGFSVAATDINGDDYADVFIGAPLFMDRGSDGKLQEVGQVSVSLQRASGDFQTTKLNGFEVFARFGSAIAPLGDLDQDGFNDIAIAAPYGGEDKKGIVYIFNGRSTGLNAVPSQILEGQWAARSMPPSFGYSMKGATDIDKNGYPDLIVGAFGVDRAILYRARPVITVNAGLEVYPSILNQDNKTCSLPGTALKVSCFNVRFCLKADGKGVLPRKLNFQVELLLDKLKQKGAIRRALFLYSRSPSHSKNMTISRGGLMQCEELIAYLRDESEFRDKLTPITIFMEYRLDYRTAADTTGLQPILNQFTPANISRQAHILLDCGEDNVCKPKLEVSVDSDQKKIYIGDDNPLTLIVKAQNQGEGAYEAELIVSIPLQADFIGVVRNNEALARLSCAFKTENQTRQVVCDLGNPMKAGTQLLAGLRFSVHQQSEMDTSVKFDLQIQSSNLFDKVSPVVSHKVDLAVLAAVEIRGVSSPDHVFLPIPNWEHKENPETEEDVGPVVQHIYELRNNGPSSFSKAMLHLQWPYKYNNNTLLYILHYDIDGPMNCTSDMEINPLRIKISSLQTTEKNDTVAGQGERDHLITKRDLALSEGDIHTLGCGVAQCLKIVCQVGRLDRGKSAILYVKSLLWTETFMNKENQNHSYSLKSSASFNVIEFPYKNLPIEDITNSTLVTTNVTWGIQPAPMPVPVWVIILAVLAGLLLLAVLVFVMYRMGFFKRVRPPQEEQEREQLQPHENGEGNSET
Chain of integrin αvβ3 on human tumor cells (ECV304 bladder carcinoma, M21 melanoma) (P05106 27-788, chain 2 of 2): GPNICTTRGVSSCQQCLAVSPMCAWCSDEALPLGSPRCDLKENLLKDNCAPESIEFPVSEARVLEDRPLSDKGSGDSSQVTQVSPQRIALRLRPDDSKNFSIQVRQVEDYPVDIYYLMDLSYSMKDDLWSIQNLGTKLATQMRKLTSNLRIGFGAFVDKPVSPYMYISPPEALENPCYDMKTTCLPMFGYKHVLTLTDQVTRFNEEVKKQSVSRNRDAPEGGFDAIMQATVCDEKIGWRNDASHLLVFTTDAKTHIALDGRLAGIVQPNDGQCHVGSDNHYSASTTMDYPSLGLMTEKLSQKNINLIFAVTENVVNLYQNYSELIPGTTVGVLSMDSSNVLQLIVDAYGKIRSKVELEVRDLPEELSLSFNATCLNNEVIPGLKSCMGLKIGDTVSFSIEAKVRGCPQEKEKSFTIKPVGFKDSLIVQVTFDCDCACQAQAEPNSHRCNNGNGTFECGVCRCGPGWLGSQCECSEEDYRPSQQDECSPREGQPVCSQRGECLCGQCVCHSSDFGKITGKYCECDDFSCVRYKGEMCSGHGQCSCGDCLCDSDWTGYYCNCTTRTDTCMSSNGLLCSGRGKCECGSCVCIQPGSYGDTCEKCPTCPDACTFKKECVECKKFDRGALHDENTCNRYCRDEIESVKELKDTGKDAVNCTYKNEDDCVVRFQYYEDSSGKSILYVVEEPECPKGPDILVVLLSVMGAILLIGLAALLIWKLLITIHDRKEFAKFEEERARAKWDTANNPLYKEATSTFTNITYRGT

B1: Mab LM609 (anti-αvβ3) (antibody, V domains shown)
VH: EVQLVESGGGLVKPGRSLRLSCAASGFAFSSYDMSWVRQIPEKRLEWVAKVSSGGGSTYYLDTVQGRFTISRDNAKNTLYLQMSSLNSEDTAMYYCARHNYGSFAYWGQGTLVTVSA
VL: DIVLTQSPATLSVTPGDSVSLSCQASQSISNHLHWYQQKSHESPRLLIKYRSQSISGIPSRFSGSGSGTDFALSINSVETEDFGMYFCQQSGSWPHTFGGGTKLEIK
**Q.** B1 was tested. Which “relative level of IGFBP-4 RNA (real time PCR) in M21 cells on denatured collagen type-IV” value did it give?
**A.** ~8 fold

**Q.** What about the “relative level of TSP-1 RNA (real time PCR) in M21 cells on denatured collagen type-IV” value of the same binder?
**A.** ~8 fold
